According to the DeepSol protein solubility set:

Test: soluble on expression in E. coli; label from the status in PepcDB or PDB records
In the case of “MRGSHHHHHHGMASMSVSTASTEMSVRKIAAHMKSNPNAKVIFMVGAGISTSCGIPDFRSPGTGLYHNLARLKLPYPEAVFDVDFFQSDPLPFYTLAKELYPGNFRPSKFHYLLKLFQDKDVLKRVYTQNIDTLERQAGVKDDLIIEAHGSFAHCHCIGCGKVYPPQVFKSKLAEHPIKDFVKCDVCGELVKPAIVFFGEDLPDSFSETWLNDSEWLREKITTSGKHPQQPLVIVVGTSLAVYPFASLPEEIPRKVKRVLCNLETVGDFKANKRPTDLIVHQYSDEFAEQLVEELGWQEDFEKILTAQ”, the “soluble on expression in E. coli” value is reported as “soluble”.
For “MSCGSNRGNEMKDKYDVLVIGAGPAGSIAAKTAAEKGLDVLLIEKRQEIGDPVRCAEGVNKECLKKHVEIDKRWICADLKGSCIFSPDGTKIEMAEEISGGEVGYVLERKVFDRALAEHAATAGAEVRVKTRATGLIIEDDFVKGARLMHLGKEYEVRASIVIGADGVESKVGRWAGIDTALKPVDVETCAQYLIAGADINQEYCEFYIGNEMAPGGYVWVFPKGGGKANVGIGILGSKMGKFKPRPVDYLNDFVQKKFPDARIVEMVFGGVPVSGSIEKTSVNGLMLVGDAARQSDPITGGGILNAMDAGKLAGEAAYEAISAGDVSVVKLEEVYEKKWRDTVGHDIDMSLIVKNCFINLTDDDLDSLAHSLKDVKFERMSLLDLLQALFKANKKLLWDLRVLFKDAAKEVIKNKTLEHHHHHH”, the “soluble on expression in E. coli” value was “soluble”.
In the case of “MSKDTKQEDNAPTPVTTTPMALNPKTVEKTMFVNKEVLPKMKKIDPEEPGHLPLNEKFMKRWLIEGLIGKGGYGEIYLALDVVRGEEVAIKVEPKKRRGKLAKRMILEQHVLAKMQGKPHVPMIYGSGHAEKYNFIIMQILSINVGDIKKSSPNKKLSQCSVGRIIHQVIAALQDLHETGYVHRDVKPANMCFGIFPHSRHTLILLDFGLVRRYKMESGEWREPRLRAGFRGTTRYVSIRVHRRCEQSPYDDLVSVMYTAYELLAGELPWKHLEKSEEVVQLKEVMTENGINPELFQGDKSVLIDFFKQVSEMDPMKEPCYEKLIECIKVLYAPKVLTDPYEWEESSKGQDEVSEENTNSK”, the “soluble on expression in E. coli” value is reported as “soluble”.
With “MHHHHHHSSGVDLGTENLYFQSMARPATVLGAMEMGRRMDAPTSAAVTRAFLERGHTEIDTAFVYSEGQSETILGGLGLRLGGSDCRVKIDTKAIPLFGNSLKPDSLRFQLETSLKRLQCPRVDLFYLHMPDHSTPVEETLRACHQLHQEGKFVELGLSNYAAWEVAEICTLCKSNGWILPTVYQGMYNAITRQVETELFPCLRHFGLRFYAFNPLAGGLLTGKYKYEDKDGKQPVGRFFGNTWAEMYRNRYWKEHHFEGIALVEKALQAAYGASAPSMTSATLRWMYHHSQLQGAHGDAVILGMSSLEQLEQNLAAAEEGPLEPAVVDAFNQAWHLVAHECPNYFR” the “soluble on expression in E. coli” value was “soluble”.
With “MTATLSWIDEITMTELERNPYPVYERLRAEAPLAYVPVLGSFVATTADLCRTIANSPDFEGIITKAGGRTFGHPAVIGVNGEIHRDLRSMVDPALQPSEVDRWVDGLVRPIARRYVEQFENDGKADLVSQYCEPVSVRALGDLLGLNEVSSDTLRDWFHRLSNSFTNAGVDADGEFTNPEGFVQGDEAKAEIRAVVDPLIDKWTVHPDDSAISHWLHDGMPEGQVRDREYIYPTLFVYLLGAMQEPGHGMASTLVGLFTRPEQLEAVIDEPALIPRAISEGMRWTSPIWSATARISTKDVTLGDVFLPEGSVVLLSYGSANHDTAVYDAPSDYDMTRPPLPHLAFGSGNHACAGIYFANHVCRIGLEELFEAIPNLERDSGADVEFWGWGFRGPTALRATWEV” the “soluble on expression in E. coli” value was “not soluble”.
In the case of “MSLNNKIKPSILPGFMELLPKEQLVFNDIVSKITGVYEQNGFLPMDTPIIEKEEVLLAKSAGETEKQVYRIDNEDRKQVLRFDLTVPFSRFAAQYMSDLTFPFKRYQLGKVYRGERNQKGRYREFYQCDVDVVGNGNLSIKNDAFIINMASKALRKIGLDSYKFQISNRKILTGVLEGLNITNMQEVMILIDKYDKITEEQFLSELNKLIGEEKAKVISKVIKISGSSDEVVENLKKVEIKNEMLEKGIEEVEEVIKYLKLFGVEDSEYAINLKIIRGLDYYTGTVFETLLTGNESYGSICSGGRYDNLAQNYTENVLPGVGMSIGITRLFFVLREIGFIENYNSSLNEKYLIVPIGDTFEYCTKILNKLLVNGKSAEIYFEEGKLKKKLTYANKLDIKYVILIGEDEVTNKELVIKDMITGEQKKLNIEEIEGHHHHHH”, the “soluble on expression in E. coli” value is reported as “soluble”.
With “MRVKAMASFSPFDVTLWYSTAAPAPLTEPLSGRIQADVCIVGAGYTGLTTALELAKAGVDVVLLERQEIGFGGSGRNAGHCTPTFTHYSLPELRKMLGETWAERLIERQTRANDRVSHMIRDYRINCEWVQNGYVMGAPHKGAIEEIRRKVETYNAVGAKTRLLGRDEVAAITGSPRFHGGWLHEEAGHLNPLAYARGLGGAVIQERGRIFTGSSVTGCERNATGGWKVRTEHGEVIASKVIFTTGAYTVGGWPKLDQTFKIQRVFVAATQILSEETRRTVLPRNTTIHDGRGDIYVYKYNAEGRIVASMFPMGRRGRDIVYTRQVMSDRLKWLHPQISADIRWDYFWFGELDMQYRTVPRLYDLSPGVVALTGLSGRGVPTGSMLGSILSEWALGKPENELALKVEPLKSAPFYMSFAPAMTLRYYRMRDNIATRLAGMELPPHALEHHHHHH” the “soluble on expression in E. coli” value was “not soluble”.
With “DYESPIVNVVEACAPAVVKIDVVKTVKTSFFDPYFEQFFKKWFGELPPGFERQVASLGSGFIFDPEGYILTNYHVVGGADNITVTMLDGSKYDAEYIGGDEELDIAVIKIKASDKKFPYLEFGDSDKVKIGEWAIAIGNPLGFQHTVTVGVVSATNRRIPKPDGSGYYVGLIQTDAAINPGNSGGPLLNIHGEVIGINTAIVNPQEAVNLGFAIPINTVKKFLDTILTQKKVEKAYLGV” the “soluble on expression in E. coli” value was “soluble”.
In the case of “SMQQLVLDPGFLGLEPLLDLLLGVHQELGASELAQDKYVADFLQWAEPIVVRLKEVRLQRDDFEILKVIGRGAFSEVAVVKMKQTGQVYAMKIMNKWDMLKRGEVSCFREERDVLVNGDRRWITQLHFAFQDENYLYLVMEYYVGGDLLTLLSKFGERIPAEMARFYLAEIVMAIDSVHRLGYVHRDIKPDNILLDRCGHIRLADFGSCLKLRADGTVRSLVAVGTPDYLSPEILQAVGGGPGTGSYGPECDWWALGVFAYEMFYGQTPFYADSTAETYGKIVHYKEHLSLPLVDEGVPEEARDFIQRLLCPPETRLGRGGAGDFRTHPFFFGLDWDGLRDSVPPFTPDFEGATDTCNFDLVEDGLTAMVSGGGETLSDIREGAPLGVHLPFVGYSYSCMALRDSEVPGPTP”, the “soluble on expression in E. coli” value is reported as “soluble”.
For “VSIKKSSGLNFDNTAIAINAGKGLEFDTNTSESPDINPIKTKIGSGIDYNENGAMITKLGAGLSFDNSGAITIGNKNDDKLTLWTTPDPSPNCRIHSDNDCKFTLVLTKCGSQVLATVAALAVSGDLSSMTGTVASVSIFLRFDQNGVLMENSSLKKHYWNFRNGNSTNANPYTNAVGFMPNLLAYPKTQSQTAKNNIVSQVYLHGDKTKPMILTITLNGTSESTETSEVSTYSMSFTWSWESGKYTTETFATNSYTFSYIAQE”, the “soluble on expression in E. coli” value was “soluble”.
With “MTKIWTRDGFAENDPWVIETEEVKATGEQKPVLPLADFLVRAAESNDIGLGVLISPADDVNRLEPYLDRIDLVAVSFPAFNDGRGFSHASLLRSRLGFAGEVRAVGDVLIDQVPLMLRTGFTSFAVTNETAIRRLSENRLPEITVYYQPTALPATGGEAYSWRRRAAQ” the “soluble on expression in E. coli” value was “not soluble”.
For “MGSDKIHHHHHHMYLITSAAMVASELQSEFGPLPPCFLPVGNKRLFHHQLALIPAGERTIITLPEGFTPGPYDSQSLKDYGVELLYLPPTLSLGESIVYALIQLEFADDEPLYILHGDTLFDSLPRQTDCLGLSQVEDNYNWAEFDAQSGTLRPYHAELRPSSELISNGFFSFSAPRTLIRYITQAKGDFIAGLNGYIDDKGLTPITLPHWYDFGHSHTYYQSKSRMTTQRAFNGMAIQGQVVKKFSRNKHKLAAEANWYQSLPGPMRGYIPQLLGCDESPELFGYSIEYLHLTALNELYVFSQLPAFAWRKVLKACCQFLKDASSYSVADAQTLSGLFMDKTLSRLEDFASQSGISVAQENRINGALRPSLLELARISREYLPKDNGRQHLLHGDFCFSNILYDFRTCNIKVIDPRGLDGNDKQTIHGNGLYDIAKLAHSVLGLYDAIIAGYFKAERLGQNLDFSIAITPRREQIMADFVRLMASEFAVSEAELYAMQIQLFLSMLPLHSDRPDRQLGFIGNAYRLYDRLLACTGNPS”, the “soluble on expression in E. coli” value was “not soluble”.
